US20260146071A1, “CCR2 INHIBITORS AND METHODS OF USE” (ORION BIOTECHNOLOGY USA Corp., priority 2022, published 2026)
Where no end group is shown, it is not given here. [ ]: non-standard residue; d: D form. Nle = CCCC[C@H](N)C(=O)O

The compounds below were run against T1, CCR2 (Homo sapiens, UniProt P41597) (assay: CCR2 inhibitory potency assay, calcium flux method, THP-1 cells stimulated with 100 nM CCL2). Details: FIG. 5; calcium flux, THP-1 cells; read-out: IC50 (compiled data from four experiments, mean pIC50) (converted).
T1 construct: endogenous in cells; host or cells: THP-1
T1 sequence (P41597 1-360 isoform P41597-2): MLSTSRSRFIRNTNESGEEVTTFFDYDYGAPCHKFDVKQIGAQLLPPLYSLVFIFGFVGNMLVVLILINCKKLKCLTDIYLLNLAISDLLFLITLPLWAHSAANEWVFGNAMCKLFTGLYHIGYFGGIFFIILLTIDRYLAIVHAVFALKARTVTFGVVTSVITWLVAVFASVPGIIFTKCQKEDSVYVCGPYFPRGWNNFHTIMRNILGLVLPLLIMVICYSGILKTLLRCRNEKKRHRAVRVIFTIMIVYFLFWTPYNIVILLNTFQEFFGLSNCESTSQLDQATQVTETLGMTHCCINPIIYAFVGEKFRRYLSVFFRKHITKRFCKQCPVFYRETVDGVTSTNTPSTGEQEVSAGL
Assay type: cell-based
Method: CCR2 inhibitory potency assay was determined using the calcium flux method.
Ca^2+ flux measurements were performed using an FDSS micro-cell device ([…]). On the day of the experiment, THP-1 cells were seeded 20000 cells/well) to wells of black-walled clear-bottom 384-well plates.
THP-1 cells were loaded with a calcium-sensitive fluorescent dye (Screen Quest™ Fluo-8 No Wash Calcium Assay Kit, AAT Bioquest) according to the manufacturer's instructions, then a first addition of either test sample dilutions or vehicle alone were added. 5 minutes later, cells were stimulated with 100 nM CCL2.

Point of comparison: `CC(=O)N[C@@H]1C[C@H](NC(C)(C)C)CC[C@@H]1N1CC[C@H](Nc2ncnc3cc(C(C)(C)C)nn23)C1=O` [BMS-813160, reference compound], IC50 9.8 nM. Against it:
- CC(C)(C)N1CCN[C@@H](C(=O)N2CCN(C(=O)Nc3ccc(Cl)c(F)c3)CC2)C1 [AZD2423, reference compound] — 1.6-fold lower, 6 nM
- Cc1cnc(C(=O)c2ncnc3[nH]ccc23)c(NS(=O)(=O)c2ccc(Cl)c(C(F)(F)F)c2)c1 [CCX-140, reference compound] — 2.4-fold higher, 24 nM

Same assay, conditions: Table 3; CCR2 inhibition; read-out: mean IC50

Point of comparison: “CCL2 variant, N-terminal FP(Nle)DGWAPVT (SEQ ID NO: 10), human CCL2 Met64Nle core [CCL2-M64Nle-2P6]”, IC50 2.2 nM. Against it:
- CCL2 variant, N-terminal (Nle)PDWNRAPVT (SEQ ID NO: 35), human CCL2 Met64Nle core [CCL2-M64Nle-NGS-MEO-1] — 76-fold higher, 167 nM
- CCL2 variant, N-terminal AFSIMQAPVT (SEQ ID NO: 15), human CCL2 Met64Nle core [CCL2-M64Nle-1P8] — 5.5-fold higher, 12 nM
- CCL2 variant, N-terminal APQWAAAT, positions 1-2 absent (SEQ ID NO: 32), human CCL2 Met64Nle core [CCL2-M64Nle-2P1] — 41-fold higher, 89.3 nM

Same assay, conditions: Table 4; CCR2 inhibition; read-out: mean IC50

Point of comparison: “CCL2 variant, N-terminal FP(Nle)DGWRPRT (SEQ ID NO: 142), human CCL2 11-76 Met64Nle core (FP[Nle]DGWRPRT; also: fused to human CCL2 11-76 core with Met64Nle) [4P23-CCL2]”, IC50 1.02 nM. Against it:
- CCL2 variant, N-terminal FP(Nle)DGWGPGV (SEQ ID NO: 144), human CCL2 11-76 Met64Nle core (FP[Nle]DGWGPGV; also: followed by human CCL2 11-76 core with Met64Nle) [4P24-CCL2] — 1.6-fold higher, 1.65 nM
- CCL2 variant, N-terminal FP(Nle)DGWGSRV (SEQ ID NO: 102), human CCL2 11-76 Met64Nle core (FP[Nle]DGWGSRV; also: followed by human CCL2 11-76 core with Met64Nle) [4P2-CCL2] — 2.7-fold higher, 2.72 nM
- CCL2 variant, N-terminal FP(Nle)DGWHPLV (SEQ ID NO: 132), human CCL2 11-76 Met64Nle core (FP[Nle]DGWHPLV; also: followed by human CCL2 11-76 core with Met64Nle) [4P18-CCL2] — 1.7-fold lower, 0.585 nM
- CCL2 variant, N-terminal FP(Nle)DGWQGGV (SEQ ID NO: 122), human CCL2 11-76 Met64Nle core (FP[Nle]DGWQGGV; also: followed by human CCL2 11-76 core with Met64Nle) [4P13-CCL2] — 1.9-fold lower, 0.534 nM
- CCL2 variant, N-terminal FP(Nle)DGWRGET (SEQ ID NO: 110), human CCL2 11-76 Met64Nle core (FP[Nle]DGWRGET; also: followed by human CCL2 11-76 core with Met64Nle) [4P6-CCL2] — within 1.5-fold, 1.45 nM
- CCL2 variant, N-terminal FP(Nle)DGWRGGV (SEQ ID NO: 116), human CCL2 11-76 Met64Nle core (FP[Nle]DGWRGGV; also: followed by human CCL2 11-76 core with Met64Nle) [4P9-CCL2] — 1.6-fold higher, 1.65 nM
- CCL2 variant, N-terminal FP(Nle)DGWRGLT (SEQ ID NO: 106), human CCL2 11-76 Met64Nle core (FP[Nle]DGWRGLT; also: followed by human CCL2 11-76 core with Met64Nle) [4P4-CCL2] — 2.3-fold higher, 2.38 nM
- CCL2 variant, N-terminal FP(Nle)DGWRGLV (SEQ ID NO: 136), human CCL2 11-76 Met64Nle core (FP[Nle]DGWRGLV; also: followed by human CCL2 11-76 core with Met64Nle) [4P20-CCL2] — within 1.5-fold, 0.93 nM
- CCL2 variant, N-terminal FP(Nle)DGWRGQV (SEQ ID NO: 128), human CCL2 11-76 Met64Nle core (FP[Nle]DGWRGQV; also: fused to human CCL2 11-76 core with Met64Nle) [4P16-CCL2] — within 1.5-fold, 0.82 nM
- CCL2 variant, N-terminal FP(Nle)DGWRPLV (SEQ ID NO: 140), human CCL2 11-76 Met64Nle core (FP[Nle]DGWRPLV; also: fused to human CCL2 11-76 core with Met64Nle) [4P22-CCL2] — within 1.5-fold, 0.759 nM
- CCL2 variant, N-terminal FP(Nle)DGWRPRQ (SEQ ID NO: 108), human CCL2 11-76 Met64Nle core (FP[Nle]DGWRPRQ; also: fused to human CCL2 11-76 core with Met64Nle) [4P5-CCL2] — 65-fold higher, 65.8 nM
- CCL2 variant, N-terminal FP(Nle)DGWVSRT (SEQ ID NO: 124), human CCL2 11-76 Met64Nle core (FP[Nle]DGWVSRT; also: fused to human CCL2 11-76 core with Met64Nle) [4P14-CCL2] — within 1.5-fold, 0.965 nM
- CCL2 variant, N-terminal FTNPTWAPLQ (SEQ ID NO: 83), human CCL2 11-76 Met64Nle core [3P8-CCL2] — within 1.5-fold, 0.892 nM
- CCL2 variant, N-terminal FTNPTWATHV (SEQ ID NO: 82), human CCL2 11-76 Met64Nle core [3P7-CCL2] — within 1.5-fold, 1.47 nM
- CCL2 variant, N-terminal FTNPTWDAFT (SEQ ID NO: 76), human CCL2 11-76 Met64Nle core [3P1-CCL2] — 1.6-fold lower, 0.655 nM
- CCL2 variant, N-terminal FTNPTWDAGV (SEQ ID NO: 97), human CCL2 11-76 Met64Nle core [3P22-CCL2] — within 1.5-fold, 1 nM
- CCL2 variant, N-terminal FTNPTWDAQV (SEQ ID NO: 77), human CCL2 11-76 Met64Nle core [3P2-CCL2] — within 1.5-fold, 0.883 nM
- CCL2 variant, N-terminal FTNPTWDAVT (SEQ ID NO: 89), human CCL2 11-76 Met64Nle core [3P14-CCL2] — 1.7-fold lower, 0.594 nM
- CCL2 variant, N-terminal FTNPTWDHFV (SEQ ID NO: 88), human CCL2 11-76 Met64Nle core [3P13-CCL2] — 2.3-fold lower, 0.437 nM
- CCL2 variant, N-terminal FTNPTWDPFT (SEQ ID NO: 95), human CCL2 11-76 Met64Nle core [3P20-CCL2] — within 1.5-fold, 0.718 nM
- CCL2 variant, N-terminal FTNPTWDQFT (SEQ ID NO: 86), human CCL2 11-76 Met64Nle core [3P11-CCL2] — within 1.5-fold, 0.703 nM
- CCL2 variant, N-terminal FTNPTWDRFT (SEQ ID NO: 87), human CCL2 11-76 Met64Nle core (not fully specified (C-terminus); also: followed C-terminally by human CCL2 11-76 core with Met64Nle) [3P12-CCL2] — 1.6-fold lower, 0.625 nM
- CCL2 variant, N-terminal FTNPTWDSFS (SEQ ID NO: 84), human CCL2 11-76 Met64Nle core (not fully specified (C-terminus); also: followed C-terminally by human CCL2 11-76 core with Met64Nle) [3P9-CCL2] — 1.7-fold lower, 0.585 nM
- CCL2 variant, N-terminal FTNPTWDSVT (SEQ ID NO: 98), human CCL2 11-76 Met64Nle core (not fully specified (C-terminus); also: followed C-terminally by human CCL2 11-76 core with Met64Nle) [3P23-CCL2] — 1.5-fold lower, 0.678 nM
- CCL2 variant, N-terminal FTNPTWDTGT (SEQ ID NO: 96), human CCL2 11-76 Met64Nle core (not fully specified (C-terminus); also: followed C-terminally by human CCL2 11-76 core with Met64Nle) [3P21-CCL2] — within 1.5-fold, 1.28 nM
- CCL2 variant, N-terminal FTNPTWDTQV (SEQ ID NO: 79), human CCL2 11-76 Met64Nle core (not fully specified (C-terminus); also: followed C-terminally by human CCL2 11-76 core with Met64Nle) [3P4-CCL2] — 1.6-fold lower, 0.646 nM
- CCL2 variant, N-terminal FTNPTWKPST (SEQ ID NO: 90), human CCL2 11-76 Met64Nle core (not fully specified (C-terminus); also: followed C-terminally by human CCL2 11-76 core with Met64Nle) [3P15-CCL2] — 1.5-fold higher, 1.53 nM
- CCL2 variant, N-terminal FTNPTWKPYA (SEQ ID NO: 91), human CCL2 11-76 Met64Nle core (not fully specified (C-terminus); also: followed C-terminally by human CCL2 11-76 core with Met64Nle) [3P16-CCL2] — within 1.5-fold, 1.23 nM
- CCL2 variant, N-terminal FTNPTWQEYS (SEQ ID NO: 92), human CCL2 11-76 Met64Nle core (not fully specified (C-terminus); also: followed C-terminally by human CCL2 11-76 core with Met64Nle) [3P17-CCL2] — within 1.5-fold, 1 nM

Same assay, conditions: compiled data from four experiments

Point of comparison: `Cc1cnc(C(=O)c2ncnc3[nH]ccc23)c(NS(=O)(=O)c2ccc(Cl)c(C(F)(F)F)c2)c1` [CCX-140, reference compound], “fold less potent than 1P2-CCL2” value 14.12 fold. Against it:
- CC(C)(C)N1CCN[C@@H](C(=O)N2CCN(C(=O)Nc3ccc(Cl)c(F)c3)CC2)C1 [AZD2423, reference compound] — lower, 3.53 fold
- CC(=O)N[C@@H]1C[C@H](NC(C)(C)C)CC[C@@H]1N1CC[C@H](Nc2ncnc3cc(C(C)(C)C)nn23)C1=O [BMS-813160, reference compound] — lower, 5.76 fold
